Experimental data published in patent publication US20210340196A1 (UNIVERSIDAD DE ZARAGOZA, published 2021).

Biological target: T1, carcinoembryonic antigen (CEA), purified antigen (UniProt P06731 35-685)
T1 construct: Purified CEA coated on ELISA wells; also called CEA antigen
T1 sequence (looked up): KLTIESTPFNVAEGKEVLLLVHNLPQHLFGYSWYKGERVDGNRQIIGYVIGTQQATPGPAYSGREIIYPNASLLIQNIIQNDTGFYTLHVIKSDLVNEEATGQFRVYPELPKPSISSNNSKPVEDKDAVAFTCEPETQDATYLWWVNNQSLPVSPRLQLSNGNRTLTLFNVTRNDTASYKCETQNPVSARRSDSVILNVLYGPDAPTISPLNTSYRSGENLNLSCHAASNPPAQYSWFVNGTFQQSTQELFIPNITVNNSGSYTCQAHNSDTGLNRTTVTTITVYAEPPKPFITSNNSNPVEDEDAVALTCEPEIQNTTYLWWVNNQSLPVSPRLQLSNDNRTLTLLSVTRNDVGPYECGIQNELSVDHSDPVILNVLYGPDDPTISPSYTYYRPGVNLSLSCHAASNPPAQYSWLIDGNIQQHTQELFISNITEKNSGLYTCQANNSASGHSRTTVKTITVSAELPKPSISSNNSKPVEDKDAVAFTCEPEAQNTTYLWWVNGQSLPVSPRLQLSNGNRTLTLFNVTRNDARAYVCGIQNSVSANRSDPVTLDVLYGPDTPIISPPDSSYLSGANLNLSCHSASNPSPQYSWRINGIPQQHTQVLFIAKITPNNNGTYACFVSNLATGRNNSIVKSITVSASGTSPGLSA
Experiment: ELISA, 200 ng CEA coated per well, 500 ng scFv MFE23 as positive control, anti-His tag antibody + HRP anti-mouse IgG, OPD read at 492 nm
Description: FIG. 7. ELISA performed with 200 ng of CEA per well (left overnight at 4° C.), PBS (negative control), 500 ng of recombinant scFv MFE23 (positive control), and the P. pastoris supernatant transformed with pPICZαC-Chimera were then added after inducing expression with methanol. To develop the binding of scFvs to the CEA antigen, an anti-histidine tag antibody and a peroxidase-conjugated goat anti-mouse IgG secondary antibody were used. The peroxidase substrate was OPD, producing a yellow-orange product that can be detected at 492 nm.
An ELISA was performed using 200 ng of CEA per well, which was incubated overnight at 4° C., PBS (negative control), 500 ng of the recombinant scFv MFE23 (positive control), and the P. pastoris supernatant transformed with pPICZαC-Chimera after inducing expression with methanol were then added. To develop the binding of scFvs to the CEA antigen, an anti-histidine tag antibody and a peroxidase-conjugated goat anti-mouse IgG secondary antibody were used. The peroxidase substrate was OPD, producing a yellow-orange product that can be detected at 492 nm.

B1: recombinant scFv MFE23 (scFv)
scFv: QVKLQQSGAELVRSGTSVKLSCTASGFNIKDSYMHWLRQGPEQGLEWIGWIDPENGDTEYAPKFQGKATFTTDTSSNTAYLQLSSLTSEDTAVYYCNEGTPTGPYYFDYWGQGTTVTVSSGGGGSGGGGSGGGGSENVLTQSPAIMSASPGEKVTITCSASSSVSYMHWFQQKPGTSPKLWIYSTSNLASGVPARFSGSGSGTSYSLTISRMEAEDAATYYCQQRSSYPLTFGAGTKLELKR
notes: Positive control in the ELISA, 500 ng; also called anti-CEA scFv MFE23
- binding result: binds
